The values that follow come from patent publication US10258642B2, “Dextran sulfate for use in mobilization of cells” (TX MEDIC AB, priority 2013, dated 2019).

Assay [1] relates to CFU-GM. The following applies: colonies with >50 cells; G-CSF 10 μg/kg daily for five days and/or dextran sulfate 15 mg/kg once on day 5 (Han 1998); cited from earlier work.
Assay [2] has as its system peripheral blood cells. Put plainly: combination with G-CSF, hematological analysis. The assay is classed as in vivo, mice. The following applies: G-CSF 2×2.5 μg/day s.c. for 2 days. As to the method:
G-CSF (NEUPOGEN®, Amgen, Holland) was supplied as sterile isotonic aqueous solution at 0.3 mg/mL and was diluted in normal saline to a concentration of 50 μg/mL. G-CSF was administered at a dose of 2.5 μg as a single subcutaneous injection, morning and evening Day -2 and Day -1. Dextran sulfate of different average molecular weights were used:
Standard treatment of patients prior to apheresis is based on daily injections of G-CSF for up to one week. Clinically dextran sulfate could be used in combination with G-CSF. In a study in mice 2.5 μg/animal of G-CSF was administered twice daily (8 hrs apart) for 2 days (Broxmeyer 1999).

B1: G-CSF: granulocyte-colony stimulation factor (NEUPOGEN, Amgen) (protein, chains of the INN, looked up)
chain: MTPLGPASSLPQSFLLKCLEQVRKIQGDGAALQEKLCATYKLCHPEELVLLGHSLGIPWAPLSSCPSQALQLAGCLSQLHSGLFLYQGLLQALEGISPELGPTLDTLQLDVADFATTIWQQMEELGMAPALQPTQGAMPAFASAFQRRAGGVLVASHLQSFLEVSYRVLRHLAQP
Consider B1, for which, in assay [1], the CFU-GM level was 17.1±1.9 colonies. In assay [2], the “number of WBC compared to normal” value is listed as “increased the number of WBC”.
